From PMC3580866 (Biochemistry, 2013)
Where a chain is given by its changes, count along the chain named. Names and notes keep the numbering of the source. Blank lines part the entries; values can stand above or below the binder they belong to.

Assays:
SEC = molecular target: the molecule itself; experiment: SEC
[1] = molecular target: full length human SLBP, unphosphorylated, untagged, co-expressed with hSLIP1 in E. coli (human, UniProt Q14493 1-270); experiment: AUC
AUC = molecular target: the molecule itself; experiment: AUC

B1: MIF4Gdb from Danio rerio (zebrafish orthologue of SLIP1) (natural protein, Danio rerio (zebrafish))
chain: ENSSKEDYKIQSFDLETQKLLKTALKDPGSVDLEKVSSVIVDQSLKDQVFSREAGRICYTIVQAEAKQTNGSVFRRNLLNRLQQEFKAREETRKRSTQEWVCLVSFICNIFDYLKVNNMPMVALVHPVYDCLFRLAQSDALKNEEEVDCLVLQLHRIGDQLEKMNVQLMDELFNLLRDGFLLQEDLSSMGRLLLLEILEFRAGGWKLSDTAQKYYYSEVTD
- stoichiometry N (SEC): 2

- Kd [1]: < 0.9 nM
B2: human SLIP1, wild type, (His)6-tagged, co-expressed with hSLBP from pRSF-Duet (natural protein, UniProt A9UHW6 1-222, looked up)
chain: MGEPSREEYKIQSFDAETQQLLKTALKDPGAVDLEKVANVIVDHSLQDCVFSKEAGRMCYAIIQAESKQAGQSVFRRGLLNRLQQEYQAREQLRARSLQGWVCYVTFICNIFDYLRVNNMPMMALVNPVYDCLFRLAQPDSLSKEEEVDCLVLQLHRVGEQLEKMNGQRMDELFVLIRDGFLLPTGLSSLAQLLLLEIIEFRAAGWKTTPAAHKYYYSEVSD

B3: R202A human SLIP1, (His)6-tagged, expressed alone from pET28a (natural protein, UniProt A9UHW6 1-222, looked up)
chain: B2 chain with R202A
- stoichiometry N (AUC): 2
